Values quoted from earlier work as cited in publication PMC2663012.

Target: PKR (Homo sapiens) (UniProt P19525)
Assay: analytical ultracentrifugation

Kd: 450 µM
Substance: PKR (from UniProt P19525)
